# Data: article PMC10450186
# T1: NSMF WT (UniProt Q6X4W1 1-530)
# T1 sequence: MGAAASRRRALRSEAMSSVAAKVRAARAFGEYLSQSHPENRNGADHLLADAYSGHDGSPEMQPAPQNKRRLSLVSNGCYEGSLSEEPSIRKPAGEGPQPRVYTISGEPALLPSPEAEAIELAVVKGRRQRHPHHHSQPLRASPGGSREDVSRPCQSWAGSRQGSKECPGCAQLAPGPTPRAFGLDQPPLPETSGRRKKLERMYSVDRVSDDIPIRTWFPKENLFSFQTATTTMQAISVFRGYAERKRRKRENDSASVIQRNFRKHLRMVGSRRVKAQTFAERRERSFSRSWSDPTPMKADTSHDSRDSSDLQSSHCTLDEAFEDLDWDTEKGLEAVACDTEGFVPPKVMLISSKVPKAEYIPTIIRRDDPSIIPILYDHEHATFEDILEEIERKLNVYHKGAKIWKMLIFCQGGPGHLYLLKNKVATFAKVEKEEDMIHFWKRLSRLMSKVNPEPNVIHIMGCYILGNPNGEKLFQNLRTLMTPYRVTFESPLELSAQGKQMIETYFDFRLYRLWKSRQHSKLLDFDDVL
# B1: Biotinylated 30-nt ssDNA (ssDNA)
# DNA: TTTTTTTTTTTTTTTTTTTTTTTTTTTTTT
# B2: Fork (Y-shape) (mixed)
# DNA 1: GCCAGGGACGAGGTGAACCTGCAGGTGGGCGGCTACTACTTTTTTTTTTTTTTTTTTTTTTTTTTTTTTTTTTTTTTTT
# DNA 2: TTTTTTTTTTTTTTTTTTTTTTTTTTTTTTTTTTTTTTTAGTAGTAGCCGCCCACCTGCAGGTTCACCTCGTCCCTGGC
# B3: 60-nt ssDNA (ssDNA)
# DNA: TATTCATTGTTTTACCTATTGTACCTTATTCTTAATTCATTTTACTAATCATTTACGAGT
# B4: Biotinylated 60-nt ssDNA (ssDNA)
# DNA: B3 DNA
# B5: 30-nt ssDNA (dT30) (ssDNA)
# DNA: B1 DNA
# B6: Biotinylated 14-nt ssDNA (ssDNA)
# DNA: TTTTTTTTTTTTTT
# B7: 14-nt ssDNA (dT14) (ssDNA)
# DNA: TTTTTTTTTTTTTT
# B8: PTJ (primer-template junction) (mixed)
# DNA 1: TGGCGACGGCAGCGAGGCAGGTCAGGAATTCTGATC
# DNA 2: GATCAGAATTCCTGACCT
# B9: R-loop (mixed)
# DNA 1: GCCAGGGACGAGGTGAACCTGCAGGTGGGCGGCTACTACTTAGATGTCATCCGAGGCTTATTGGTAGAATTCGGCAGCGTCATGCGACGGC
# DNA 2: GCCGTCGCATGACGCTGCCGAATTCTACCACGCGATTCATACCTGTCGTGCCAGCTGCTTTGCCCACCTGCAGGTTCACCTCGTCCCTGGC
# RNA: GCAGCUGGCACGACAGGUAUGAAUC
# How the values were obtained:
# RPA-eGFP heterotrimer [1] = target: T2, RPA-eGFP heterotrimer (human, UniProt P27694;P15927;P35244 1-616;1-270;1-121); experiment: single-molecule photobleaching; two steps predominant; EMSA: 50 mM Tris-HCl pH 7.5, 50 mM NaCl, 1 mM DTT, 0.01% Tween-20, 23°C, 10 nM labeled DNA; NSMF-DNA gels 1.5% agarose in 1xTBE at 4°C; settings: protein: recombinant; tags: 6xHis; eGFP at C-term of RPA70; copies: 1;1;1; label: 5' biotin
# T2 sequence (P27694 whole entry, chain 1 of 3): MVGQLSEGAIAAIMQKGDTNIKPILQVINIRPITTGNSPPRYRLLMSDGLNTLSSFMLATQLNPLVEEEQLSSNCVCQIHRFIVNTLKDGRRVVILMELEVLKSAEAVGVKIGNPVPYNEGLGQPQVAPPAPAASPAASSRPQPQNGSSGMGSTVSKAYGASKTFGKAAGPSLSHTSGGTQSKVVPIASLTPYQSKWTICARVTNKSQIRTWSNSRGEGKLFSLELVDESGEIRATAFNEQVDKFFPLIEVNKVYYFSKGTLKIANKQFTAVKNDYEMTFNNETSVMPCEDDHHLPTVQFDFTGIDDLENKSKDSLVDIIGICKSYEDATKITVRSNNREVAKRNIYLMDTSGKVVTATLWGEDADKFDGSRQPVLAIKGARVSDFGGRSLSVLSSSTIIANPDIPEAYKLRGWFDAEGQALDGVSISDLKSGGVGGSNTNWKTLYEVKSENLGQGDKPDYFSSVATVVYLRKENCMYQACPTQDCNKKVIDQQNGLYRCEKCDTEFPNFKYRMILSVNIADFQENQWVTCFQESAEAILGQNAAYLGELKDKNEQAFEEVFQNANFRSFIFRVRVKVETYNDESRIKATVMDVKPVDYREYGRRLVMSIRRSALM
# T2 sequence (P15927 whole entry, chain 2 of 3): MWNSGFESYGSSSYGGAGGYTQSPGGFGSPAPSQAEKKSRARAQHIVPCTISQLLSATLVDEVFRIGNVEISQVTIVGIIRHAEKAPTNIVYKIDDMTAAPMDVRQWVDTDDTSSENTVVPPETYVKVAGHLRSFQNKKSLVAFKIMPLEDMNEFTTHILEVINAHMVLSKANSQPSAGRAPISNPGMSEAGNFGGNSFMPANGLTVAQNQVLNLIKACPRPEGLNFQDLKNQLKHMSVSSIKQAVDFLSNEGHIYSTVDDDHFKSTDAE
# T2 sequence (P35244 whole entry, chain 3 of 3): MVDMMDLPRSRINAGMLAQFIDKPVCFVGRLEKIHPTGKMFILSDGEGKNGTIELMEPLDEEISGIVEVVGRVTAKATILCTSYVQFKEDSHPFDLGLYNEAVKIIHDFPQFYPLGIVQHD
# NSMF WT [2] = target: T1, NSMF WT; experiment: EMSA; low affinity; EMSA: 50 mM Tris-HCl pH 7.5, 50 mM NaCl, 1 mM DTT, 0.01% Tween-20, 23°C, 10 nM labeled DNA; NSMF-DNA gels 1.5% agarose in 1xTBE at 4°C; settings: protein: recombinant, tags: N-term 3xFLAG, C-term 10xHis (MBP cleaved)
# pmRPA-S33D [3] = target: T3, pmRPA-S33D (human, UniProt P27694;P15927;P35244 1-616;1-270;1-121, S33D;RPA32); experiment: EMSA; two shifted bands; EMSA: 50 mM Tris-HCl pH 7.5, 50 mM NaCl, 1 mM DTT, 0.01% Tween-20, 23°C, 10 nM labeled DNA; NSMF-DNA gels 1.5% agarose in 1xTBE at 4°C; settings: protein: recombinant; tags: 7xHis; copies: 1;1;1; label: 5' Cy5
# T3 sequence (P27694 whole entry, stated change not applied, chain 1 of 3): as the sequence (P27694 whole entry, chain 1 of 3) above
# T3 sequence (P15927 whole entry S33D, chain 2 of 3): as the sequence (P15927 whole entry, chain 2 of 3) above, with S33D counted along it
# T3 sequence (P35244 whole entry, stated change not applied, chain 3 of 3): as the sequence (P35244 whole entry, chain 3 of 3) above
# [4] = target: T4, RPA heterotrimer WT (RPA70/RPA32/RPA14) (human, UniProt P27694;P15927;P35244 1-616;1-270;1-121); experiment: EMSA; three shifted bands; EMSA: 50 mM Tris-HCl pH 7.5, 50 mM NaCl, 1 mM DTT, 0.01% Tween-20, 23°C, 10 nM labeled DNA; NSMF-DNA gels 1.5% agarose in 1xTBE at 4°C; settings: protein: recombinant; tags: untagged; 7xHis version also made; copies: 1;1;1; label: 5' Cy5
# T4 sequence (P27694 whole entry, chain 1 of 3): as the sequence (P27694 whole entry, chain 1 of 3) above
# T4 sequence (P15927 whole entry, chain 2 of 3): as the sequence (P15927 whole entry, chain 2 of 3) above
# T4 sequence (P35244 whole entry, chain 3 of 3): as the sequence (P35244 whole entry, chain 3 of 3) above
# RPA-eGFP heterotrimer [5] = target: T2, RPA-eGFP heterotrimer; experiment: single-molecule photobleaching; three steps predominant; EMSA: 50 mM Tris-HCl pH 7.5, 50 mM NaCl, 1 mM DTT, 0.01% Tween-20, 23°C, 10 nM labeled DNA; NSMF-DNA gels 1.5% agarose in 1xTBE at 4°C; settings: protein: recombinant; tags: 6xHis; eGFP at C-term of RPA70; copies: 1;1;1; label: 5' biotin
# DBM-RPA = DBM-RPA (human, UniProt P27694;P15927;P35244 1-616;1-270;1-121, W107A;F135A;RPA32); experiment: EMSA; 25 nM; single molecule bound; EMSA: 50 mM Tris-HCl pH 7.5, 50 mM NaCl, 1 mM DTT, 0.01% Tween-20, 23°C, 10 nM labeled DNA; NSMF-DNA gels 1.5% agarose in 1xTBE at 4°C; settings: protein: recombinant; copies: 1;1;1; label: 5' Cy5
# Sequence of DBM-RPA (P27694 whole entry, stated change not applied, chain 1 of 3): as the sequence (P27694 whole entry, chain 1 of 3) above
# Sequence of DBM-RPA (P15927 whole entry W107A/F135A, chain 2 of 3): as the sequence (P15927 whole entry, chain 2 of 3) above, with W107A, F135A counted along it
# Sequence of DBM-RPA (P35244 whole entry, stated change not applied, chain 3 of 3): as the sequence (P35244 whole entry, chain 3 of 3) above
# [6] = target: T4, RPA heterotrimer WT (RPA70/RPA32/RPA14); experiment: EMSA; two shifted bands up to 150 nM RPA; EMSA: 50 mM Tris-HCl pH 7.5, 50 mM NaCl, 1 mM DTT, 0.01% Tween-20, 23°C, 10 nM labeled DNA; NSMF-DNA gels 1.5% agarose in 1xTBE at 4°C; settings: protein: recombinant; tags: untagged; 7xHis version also made; copies: 1;1;1; label: 5' Cy5
# pmRPA-S33D [7] = target: T3, pmRPA-S33D; experiment: EMSA; one shifted band; EMSA: 50 mM Tris-HCl pH 7.5, 50 mM NaCl, 1 mM DTT, 0.01% Tween-20, 23°C, 10 nM labeled DNA; NSMF-DNA gels 1.5% agarose in 1xTBE at 4°C; settings: protein: recombinant; tags: 7xHis; copies: 1;1;1; label: 5' Cy5
# RPA-eGFP heterotrimer [8] = target: T2, RPA-eGFP heterotrimer; experiment: single-molecule fluorescence; EMSA: 50 mM Tris-HCl pH 7.5, 50 mM NaCl, 1 mM DTT, 0.01% Tween-20, 23°C, 10 nM labeled DNA; NSMF-DNA gels 1.5% agarose in 1xTBE at 4°C; settings: protein: recombinant; tags: 6xHis; eGFP at C-term of RPA70; copies: 1;1;1; label: 5' biotin
# [9] = target: T4, RPA heterotrimer WT (RPA70/RPA32/RPA14); experiment: EMSA; single shifted band; EMSA: 50 mM Tris-HCl pH 7.5, 50 mM NaCl, 1 mM DTT, 0.01% Tween-20, 23°C, 10 nM labeled DNA; NSMF-DNA gels 1.5% agarose in 1xTBE at 4°C; settings: protein: recombinant; tags: untagged; 7xHis version also made; copies: 1;1;1; label: 5' Cy5
# NSMF WT [10] = target: T1, NSMF WT; experiment: EMSA; up to 3000 nM NSMF; EMSA: 50 mM Tris-HCl pH 7.5, 50 mM NaCl, 1 mM DTT, 0.01% Tween-20, 23°C, 10 nM labeled DNA; NSMF-DNA gels 1.5% agarose in 1xTBE at 4°C; settings: protein: recombinant; tags: N-term 3xFLAG, C-term 10xHis (MBP cleaved); label: Cy3 on Oligo1, Cy5 on RNA oligo; bubble 1:2, RNA strand 3 paired to strand 2 in bubble
binder,measurement,setting,value
B1,binding result,RPA-eGFP heterotrimer [1],binds
B2,binding result,"NSMF WT [2]; label: 5' Cy5 on strand 1, fork 1:2, two poly-dT arms",binds
B3,binding result,pmRPA-S33D [3],binds
same,binding result,[4],binds
B4,binding result,RPA-eGFP heterotrimer [5],binds
B5,binding result,DBM-RPA,binds
same,binding result,[6],binds
same,binding result,pmRPA-S33D [7],binds
B6,binding result,RPA-eGFP heterotrimer [8],binds
B7,binding result,[9],binds
B8,binding result,"NSMF WT [2]; 18 bp duplex, 5' overhang 18 nt on strand 1",binds
B9,binding result,NSMF WT [10],no binding
